Experimental data reported in PMC9104846.

What was measured:
[1] = molecular target: Cetuximab (anti-EGFR), full-length IgG; experiment: cross-linking
[2] = molecular target: Trastuzumab (anti-Her2/neu), full-length IgG; experiment: cross-linking

| Substance | percent of IgG labeled with a single SpyCatcher/SpyTag [1] | percent of IgG labeled with a single SpyCatcher/SpyTag [2] | maximum percentage of IgG conjugated to a single pAbBD-SC/ST [1] | maximum percentage of IgG conjugated to a single pAbBD-SC/ST [2] |
| --- | --- | --- | --- | --- |
| pAbBD-(GGS)7-SC-(GGS)4-pAbBD (designed binder) | > 70% | > 70% | – | – |
| pAbBD-(GGS)7-SC-(GGS)7-pAbBD (designed binder) | > 70% | > 70% | – | – |
| photoreactive antibody-binding domain fused to SpyTag (designed binder) | – | – | 40% | – |
| pAbBD-(GGS)7-ST-(GGS)4-pAbBD (designed binder) | > 70% | > 70% | – | – |
| photoreactive antibody-binding domain fused to SpyCatcher (designed binder) | – | – | – | 40% |
| pAbBD-(GGS)7-ST-(GGS)7-pAbBD (designed binder) | > 70% | > 70% | – | – |
